T1: SPN-4 RRM (3xFLAG::SPN-4 RRM::6xHis) (Caenorhabditis elegans, UniProt G5EF02 1-200)
T1 sequence: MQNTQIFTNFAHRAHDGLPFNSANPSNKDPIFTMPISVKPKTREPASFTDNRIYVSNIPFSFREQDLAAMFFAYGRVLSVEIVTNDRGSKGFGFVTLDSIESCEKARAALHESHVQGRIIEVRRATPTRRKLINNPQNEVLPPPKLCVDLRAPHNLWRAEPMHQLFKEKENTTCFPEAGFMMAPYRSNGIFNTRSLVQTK

B1: chs-1(40-79) Rbfox mutant control (ssRNA)
RNA: AUUAGUAUUAUUAUUAUUACAAACUCUUACCUCAUCUCUC
B2: lin-41(995-1054) (ssRNA)
RNA: GUGCCCUAGCGCUAAAUAUUGUUUUAUUUUAAUGCAUGCUUCCUGCACGCCCCUCCCCCU
B3: lin-41(1023-1047) (ssRNA)
RNA: UUAAUGCAUGCUUCCUGCACGCCCC
B4: lin-41(1023-1047) motif 1 (ssRNA)
RNA: UUAAUGCAUGCUUCCUACAAACCCC
B5: lin-41(1023-1047) motif 2 (ssRNA)
RNA: UUAAUACAAACUUCCUGCACGCCCC
B6: chs-1(40-79) (ssRNA)
RNA: AUUAGUAUUAUUAUUAUUGCAUGCUCUUACCUCAUCUCUC

These binders were tested against T1, SPN-4 RRM (3xFLAG::SPN-4 RRM::6xHis) (assay: EMSA; did not bind specifically; 10 mM Tris-HCl pH 7.5, 150 mM NaCl, 0.001% NP-40, 10% glycerol, 0.01 mg/ml tRNA, 0.025% Tween-20; 32 nM RNA, 50 nM-2.9 uM protein; 15 min, room temperature; 8%). Conditions: protein: recombinant; tags: N-terminal 3xFLAG (MBP removed by TEV), C-terminal 6xHis; label: 5' Cy5.
B1: no binding.

These binders were tested against T1, SPN-4 RRM (3xFLAG::SPN-4 RRM::6xHis) (assay: EMSA; 10 mM Tris-HCl pH 7.5, 150 mM NaCl, 0.001% NP-40, 10% glycerol, 0.01 mg/ml tRNA, 0.025% Tween-20; 32 nM RNA, 50 nM-2.9 uM protein; 15 min, room temperature; 8%). Conditions: protein: recombinant; tags: N-terminal 3xFLAG (MBP removed by TEV), C-terminal 6xHis; label: 5' Cy5.
Binder B2 has a Kd of 308 ± 17.9 nM.
Work on B3 yielded a Kd of 285 ± 29.4 nM.
Binder B4 has a Kd of 230 ± 8.1 nM.
Binder B5 has a Kd of 1640 ± 146 nM.
With B6 the Kd was 174 ± 13.5 nM.

Reference: publication PMC13286378, “The SPN-4 Rbfox RNA-binding protein selects maternal mRNAs for CCR4-NOT-dependent clearance in early Caenorhabditis elegans embryos”
